For 1 substance, TOPFLASH % Wnt Maxima and TOPFLASH EC50 results are on record in patent US20260250398A1.

This test concerns the target FZD/LRP. Kind of test: cell-based or functional assay.

As for Wnt3a, recombinantly produced ligand, the TOPFLASH % Wnt Maxima is 100 % Wnt Maxima and the TOPFLASH EC50 amounted to 6 nM.
